Experimental data from US20260250338A1.
One block for each substance: values may come before it.

What was measured:
[1] = target: full length human CD16b stably expressed on transduced WT Jurkat cells (human) (UniProt O75015); assay: flow cytometry on CD16b-transduced WT Jurkat cells stained with anti-CD16 (axis printed VL1-A :: CD16-eFluor 450-A)
[2] = target: HER2 on SKOV3 cells (human) (UniProt P04626); assay: flow cytometry on SKOV3 cells, anti-HER2 PerCP/Cy5.5 at 1:20
[3] = target: HER2 on JIMT-1 cells (human) (UniProt P04626); assay: flow cytometry on JIMT-1 cells, anti-HER2 PerCP/Cy5.5 at 1:20
[4] = target: HER2 on HT29 cells (human) (UniProt P04626); assay: flow cytometry on HT29 cells, anti-HER2 PerCP/Cy5.5 at 1:20
[5] = target: HER2 on MDA-MB-175 cells (human) (UniProt P04626); assay: flow cytometry on MDA-MB-175 cells, anti-HER2 PerCP/Cy5.5 at 1:20
[6] = target: HER2 on MDA-MB-231 cells (human) (UniProt P04626); assay: flow cytometry on MDA-MB-231 cells, anti-HER2 PerCP/Cy5.5 at 1:20
[7] = target: HER2 on SKOV3 cells (human) (UniProt P04626); assay: flow cytometry on SKOV3 cells, isotype ctrl PerCP/Cy5.5
[8] = target: HER2 on JIMT-1 cells (human) (UniProt P04626); assay: flow cytometry on JIMT-1 cells, isotype ctrl PerCP/Cy5.5
[9] = target: HER2 on HT29 cells (human) (UniProt P04626); assay: flow cytometry on HT29 cells, isotype ctrl PerCP/Cy5.5
[10] = target: HER2 on MDA-MB-175 cells (human) (UniProt P04626); assay: flow cytometry on MDA-MB-175 cells, isotype ctrl PerCP/Cy5.5
[11] = target: HER2 on MDA-MB-231 cells (human) (UniProt P04626); assay: flow cytometry on MDA-MB-231 cells, isotype ctrl PerCP/Cy5.5

full length human CD16b stably expressed on transduced WT Jurkat cells (human), sequence (O75015 17-200): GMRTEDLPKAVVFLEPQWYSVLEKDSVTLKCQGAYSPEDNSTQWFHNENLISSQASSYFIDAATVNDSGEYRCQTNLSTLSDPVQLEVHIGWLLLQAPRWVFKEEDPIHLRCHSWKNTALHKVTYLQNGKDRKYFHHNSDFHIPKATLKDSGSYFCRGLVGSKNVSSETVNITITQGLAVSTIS

CD16 gate (percent of cells) [1]: 100
Substance: CD16-BV421 (BV421 mouse anti-human CD16 clone 3G8, BD Biosciences) (antibody)

Median : BL3-A [2]: 25400 | Median : BL3-A [3]: 10300 | Median : BL3-A [4]: 2230 | Median : BL3-A [5]: 6860 | Median : BL3-A [6]: 1240
Substance: HER2 (Anti-Her2 PerCP/Cy5.5, BioLegend #324416) (antibody)

Median : BL3-A [7]: 491 | Median : BL3-A [8]: 306 | Median : BL3-A [9]: 361 | Median : BL3-A [10]: 331 | Median : BL3-A [11]: 520
Substance: iso ctrl (Isotype ctrl PerCP/Cy5.5 antibody)
